# B1: Refmab #2 (antibody, V domains shown)
# VH: QVQLVQSGAEVKKPGSSVKVSCKASGGTFSDYAISWVRQAPGQGLEWMGRIIPILGVADYAQKFQGRVTITADKSTRTAYMELSSLRSEDTAVYYCARNWADAFDIWGQGTMVTVSS
# VL: DIQLTQSPSSLSASVGDRVTITCRASQGISSVLAWYQQKPGKAPKLLIYDASSLESGVPSRFSGSGSGTDFTLTISSLQPEDFATYYCQQFDSSITFGQGTKLEIK
# notes: In the alanine scan antibodies were used as IgG or Fab
# B2: Refmab #3 (antibody, V domains shown)
# VH: QVQLVQSGAEVKKPGSSVKVSCKASGYTFTDYNMHWVRQAPGQGLEWIGYIYPYNGGTGYNQKFKSKATITADESTNTAYMELSSLRSEDTAVYYCARGRPAMDYWGQGTLVTVSS
# VL: DIQMTQSPSSLSASVGDRVTITCRASESVDNYGISFMNWFQQKPGKAPKLLIYAASNQGSGVPSRFSGSGSGTDFTLTISSLQPDDFATYYCQQSKEVPWTFGQGTKVEIK
# notes: as for B1
# B3: Refmab #4 (antibody, V domains shown)
# VH: QVQLVQSGAEVKKPGESVKVSCKASGYTFTNYGMNWVKQAPGQGLEWMGWINTYTGEPTYADKFQGRVTMTTDTSTSTAYMEIRNLGGDDTAVYYCARWSWSDGYYVYFDYWGQGTSVTVSS
# VL: DIVMTQSPDSLTVSLGERTTINCKSSQSVLDSSTNKNSLAWYQQKPGQPPKLLLSWASTRESGIPDRFSGSGSGTDFTLTIDSPQPEDSATYYCQQSAHFPITFGQGTRLEIK
# notes: as for B1
# B4: Refmab #1 (antibody, V domains shown)
# VH: EVQLVQSGAEVKKPGSSVKVSCKASGYTITDSNIHWVRQAPGQSLEWIGYIYPYNGGTDYNQKFKNRATLTVDNPTNTAYMELSSLRSEDTAFYYCVNGNPWLAYWGQGTLVTVSS
# VL: DIQLTQSPSTLSASVGDRVTITCRASESLDNYGIRFLTWFQQKPGKAPKLLMYAASNQGSGVPSRFSGSGSGTEFTLTISSLQPDDFATYYCQQTKEVPWSFGQGTKVEVK
# notes: In the alanine scan antibodies were used as IgG or Fab; also called hP67.6
# B5: Refmab #2 (antibody, V domains shown)
# VH: B1 VH
# VL: B1 VL
# notes: The alanine scan used IgG or Fab
# B6: Refmab #3 (antibody, V domains shown)
# VH: B2 VH
# VL: B2 VL
# notes: as for B5
# B7: Refmab #1 (antibody, V domains shown)
# VH: B4 VH
# VL: B4 VL
# notes: The alanine scan used IgG or Fab; also called hP67.6
# Target: human CD33 P203A (human, UniProt P20138 18-364)
# Sequence (P20138 18-364 P203A limits assumed): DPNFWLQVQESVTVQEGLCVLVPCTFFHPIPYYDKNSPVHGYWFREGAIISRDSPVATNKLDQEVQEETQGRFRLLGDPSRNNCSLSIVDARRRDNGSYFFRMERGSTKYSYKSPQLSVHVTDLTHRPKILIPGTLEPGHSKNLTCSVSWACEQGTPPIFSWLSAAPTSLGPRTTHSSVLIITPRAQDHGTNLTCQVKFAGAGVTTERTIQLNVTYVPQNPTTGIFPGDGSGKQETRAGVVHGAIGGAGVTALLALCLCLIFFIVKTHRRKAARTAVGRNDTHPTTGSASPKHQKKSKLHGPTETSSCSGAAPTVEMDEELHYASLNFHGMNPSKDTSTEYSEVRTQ
# Test: alanine scan, flow cytometry, HEK293-T;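 note: antibody binding to each alanine-substituted CD33 mutant expressed transiently in HEK293-T, read as fluorescence minus background, mean of duplicates, relative to wild-type CD33 set as 100%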
row,Binder,Mean % WT Binding
1,B1,109%
2,B2,105%
3,B3,112%
4,B4,103%

# Target: human CD33 T208A (human, UniProt P20138 18-364)
# Sequence (P20138 18-364 T208A limits assumed): as the sequence (P20138 18-364 P203A limits assumed) above, with A186P, T191A counted along it
# Test: alanine scan, flow cytometry, HEK293-T;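 note: antibody binding to each alanine-substituted CD33 mutant expressed transiently in HEK293-T, read as fluorescence minus background, mean of duplicates, relative to wild-type CD33 set as 100%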
row,Binder,Mean % WT Binding
1,B1,117%
2,B2,83.6%
3,B3,108%
4,B4,101%

# Target: human CD33 G218A (human, UniProt P20138 18-364)
# Sequence (P20138 18-364 G218A limits assumed): as the sequence (P20138 18-364 P203A limits assumed) above, with A186P, G201A counted along it
# Test: alanine scan, flow cytometry, HEK293-T;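 note: antibody binding to each alanine-substituted CD33 mutant expressed transiently in HEK293-T, read as fluorescence minus background, mean of duplicates, relative to wild-type CD33 set as 100%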
row,Binder,Mean % WT Binding
1,B1,124%
2,B2,143%
3,B3,102%
4,B4,79.2%

# Target: human CD33 C169A (human, UniProt P20138 18-364)
# Sequence (P20138 18-364 C169A limits assumed): as the sequence (P20138 18-364 P203A limits assumed) above, with C152A, A186P counted along it
# Test: alanine scan, flow cytometry, HEK293-T;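 note: antibody binding to each alanine-substituted CD33 mutant expressed transiently in HEK293-T, read as fluorescence minus background, mean of duplicates, relative to wild-type CD33 set as 100%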
row,Binder,Mean % WT Binding
1,B1,106%
2,B2,115%
3,B3,69.3%
4,B4,75.8%

# Target: human CD33 T302A (human, UniProt P20138 18-364)
# Sequence (P20138 18-364 T302A limits assumed): as the sequence (P20138 18-364 P203A limits assumed) above, with A186P, T285A counted along it
# Test: alanine scan, flow cytometry, HEK293-T
row,Binder,Mean % WT Binding
1,B5,90.7 % WT binding
2,B6,101 % WT binding
3,B7,95 % WT binding

# Source: patent US20260242735A1 (UNIVERSIT T BASEL, published 2026)
